Series [1] has as its target T1, NAD-dependent protein lipoamidase sirtuin-4, mitochondrial (Homo sapiens) (UniProt Q9Y6E7).
T1 sequence (whole entry): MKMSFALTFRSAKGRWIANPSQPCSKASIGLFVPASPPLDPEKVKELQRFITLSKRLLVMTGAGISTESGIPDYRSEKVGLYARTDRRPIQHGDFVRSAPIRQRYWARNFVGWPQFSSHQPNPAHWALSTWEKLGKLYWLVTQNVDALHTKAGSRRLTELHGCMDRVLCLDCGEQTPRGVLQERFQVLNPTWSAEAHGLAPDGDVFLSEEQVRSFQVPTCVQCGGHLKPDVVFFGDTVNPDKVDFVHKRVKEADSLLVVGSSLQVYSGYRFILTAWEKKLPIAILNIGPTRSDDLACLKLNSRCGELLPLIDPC
Kind of series: Ratio of Kcat to Km at recombinant SIRT4 (unknown origin).

The target in series [2] is T1, NAD-dependent protein lipoamidase sirtuin-4, mitochondrial (Homo sapiens). Put plainly: Ratio of Kcat to Km at human N-terminal His6-tagged SIRT4 (25 to 314 residues) expressed in Escherichia coli codon plus (DE3).
Series [3] addresses T2, NAD-dependent protein deacetylase sirtuin-2 (Homo sapiens) (UniProt Q8IXJ6).
T2 sequence (whole entry): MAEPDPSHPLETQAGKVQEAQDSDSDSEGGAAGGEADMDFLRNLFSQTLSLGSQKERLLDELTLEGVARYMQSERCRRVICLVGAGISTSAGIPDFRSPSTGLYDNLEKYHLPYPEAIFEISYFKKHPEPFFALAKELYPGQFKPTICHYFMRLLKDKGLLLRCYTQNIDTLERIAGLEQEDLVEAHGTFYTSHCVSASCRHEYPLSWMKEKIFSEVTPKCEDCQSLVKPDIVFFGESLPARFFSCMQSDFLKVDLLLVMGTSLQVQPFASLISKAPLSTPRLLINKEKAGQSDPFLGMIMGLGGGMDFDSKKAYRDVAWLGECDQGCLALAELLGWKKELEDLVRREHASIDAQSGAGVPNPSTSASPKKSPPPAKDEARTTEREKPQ
Put plainly: Ratio of Kcat to Km at human SIRT2 (36 to 356 residues) expressed in Escherichia coli rosetta cells.

Compound in series [4]: CC(=O)NCCCC[C@H](NC(=O)[C@H](CCCNC(=N)N)NC(=O)[C@H](C)NC(=O)[C@@H](NC(=O)[C@H](CCC(N)=O)NC(=O)[C@@H](N)CCCCN)[C@@H](C)O)C(=O)N[C@@H](CO)C(=O)N[C@H](C(=O)NCC(=O)NCC(=O)O)[C@@H](C)O
Kind of series: (§1) Activity at recombinant SIRT4 (unknown origin) in presence of NAD by LC-MS analysis. The settings on record: Homo sapiens.

Compound in series [5]: CC[C@H](C)[C@H](NC(=O)[C@@H](NC(=O)[C@H](C)NC(=O)[C@H](CCCCNC(=O)CCCCC1CCSS1)NC(=O)[C@H](CC(=O)O)NC(=O)[C@@H](NC(=O)[C@H](CCC(=O)O)NC(=O)[C@@H](NC(=O)[C@@H](N)CCC(=O)O)[C@@H](C)CC)[C@@H](C)O)[C@@H](C)O)C(=O)NCC(=O)O
The series is described as §1. The settings on record: Homo sapiens.

Compound in series [6]: CC[C@H](C)[C@H](NC(=O)[C@@H](NC(=O)[C@H](C)NC(=O)[C@H](CCCCNC(C)=O)NC(=O)[C@H](CC(=O)O)NC(=O)[C@@H](NC(=O)[C@H](CCC(=O)O)NC(=O)[C@@H](NC(=O)[C@@H](N)CCC(=O)O)[C@@H](C)CC)[C@@H](C)O)[C@@H](C)O)C(=O)NCC(=O)O
The description is as §1. The settings on record: Homo sapiens.

Compound in series [7]: CC[C@H](C)[C@H](NC(=O)[C@H](CC(N)=O)NC(=O)[C@H](CCCCNC(C)=O)NC(=O)[C@H](CO)NC(=O)CNC(=O)[C@H](CC(C)C)NC(=O)[C@H](Cc1ccc(O)cc1)NC(=O)[C@@H](N)CO)C(=O)N[C@@H](CCCCN)C(=O)N[C@@H](C)C(=O)N[C@@H](CO)C(=O)N[C@@H](CCC(=O)O)C(=O)O
The description is as §1. The settings on record: Homo sapiens.

Compound in series [8]: C[C@H](NC(=O)[C@@H](NC(=O)[C@H](CCC(N)=O)NC(=O)[C@@H](N)CCCCN)[C@@H](C)O)C(=O)N[C@@H](CCCNC(=N)N)C(=O)N[C@@H](CCCCNC(=O)CCCCC1CCSS1)C(=O)N[C@@H](CO)C(=O)N[C@H](C(=O)NCC(=O)NCC(=O)O)[C@@H](C)O
The series is described as §1. The settings on record: Homo sapiens.

Compound in series [9]: C[C@H](NC(=O)[C@@H](NC(=O)[C@H](CCC(N)=O)NC(=O)[C@@H](N)CCCCN)[C@@H](C)O)C(=O)N[C@@H](CCCNC(=N)N)C(=O)N[C@@H](CCCCNC(=O)CCCC[C@@H]1SC[C@@H]2NC(=O)N[C@@H]21)C(=O)N[C@@H](CO)C(=O)N[C@H](C(=O)NCC(=O)NCC(=O)O)[C@@H](C)O
Described as §1. The note with it: Homo sapiens.

Substrate in series [10]: CC(=O)NCCCC[C@H](NC(=O)[C@H](CC(C)C)NC(=O)[C@@H](NC(=O)CN)C(C)C)C(=O)N[C@@H](CCC(=O)O)C(=O)N[C@@H](Cc1ccc(O)cc1)C(=O)NCC(=O)N[C@H](C(=O)O)C(C)C
Put plainly: (§2) Activity at human N-terminal His6-tagged SIRT4 (25 to 314 residues) expressed in Escherichia coli codon plus (DE3).

Substrate in series [11]: CC(C)C[C@H](NC(=O)[C@@H](NC(=O)CN)C(C)C)C(=O)N[C@@H](CCCCNC(=O)CC(C)(C)C(=O)O)C(=O)N[C@@H](CCC(=O)O)C(=O)N[C@@H](Cc1ccc(O)cc1)C(=O)NCC(=O)N[C@H](C(=O)O)C(C)C
Described as §2.

Substrate in series [12]: CC(C)C[C@H](NC(=O)[C@@H](NC(=O)CN)C(C)C)C(=O)N[C@@H](CCCCNC(=O)CC(C)(O)CC(=O)O)C(=O)N[C@@H](CCC(=O)O)C(=O)N[C@@H](Cc1ccc(O)cc1)C(=O)NCC(=O)N[C@H](C(=O)O)C(C)C
The series is described as §2.

Substrate in series [13]: CC(C)C[C@H](NC(=O)[C@@H](NC(=O)CN)C(C)C)C(=O)N[C@@H](CCCCNC(=O)CCCCC1CCSS1)C(=O)N[C@@H](CCC(=O)O)C(=O)N[C@@H](Cc1ccc(O)cc1)C(=O)NCC(=O)N[C@H](C(=O)O)C(C)C
Described as §2.

Where a SMILES comes first, the peptide text is derived from it. The star is where a group is joined. ξ: configuration not given here. Biotin = O=C1N[C@H]2[C@H](CS[C@H]2CCCCC(=O)*)N1; Lipoyl(6ξ) = O=C(CCCCC1CCSS1)*; X2 = CC(O)(CC(=O)O)CC(=O)*; X1 = CC(C)(CC(=O)*)C(=O)O

As for H-KQTARK(Ac)STGG-OH, the Ratio in series [1] amounted to 0.083 s⁻¹ M⁻¹.
For H-GVLK(Ac)EYGV-OH, the Ratio in [2] is 3.7 s⁻¹ M⁻¹.
Regarding H-SYLGSK(Ac)NIKASE-OH, in [1], the Ratio is 0.0064 s⁻¹ M⁻¹.
As for `C[C@H](NC(=O)[C@@H](NC(=O)[C@H](CCC(N)=O)NC(=O)[C@@H](N)CCCCN)[C@@H](C)O)C(=O)N[C@@H](CCCNC(=N)N)C(=O)N[C@@H](CCCCNC(=O)CCCCC1CCSS1)C(=O)N[C@@H](CO)C(=O)N[C@H](C(=O)NCC(=O)NCC(=O)O)[C@@H](C)O` (stereo partly drawn) (H-KQTARK(Lipoyl(6ξ))STGG-OH), the Ratio in [1] came to 2.3 s⁻¹ M⁻¹.
On to `CC(C)C[C@H](NC(=O)[C@@H](NC(=O)CN)C(C)C)C(=O)N[C@@H](CCCCNC(=O)CC(C)(O)CC(=O)O)C(=O)N[C@@H](CCC(=O)O)C(=O)N[C@@H](Cc1ccc(O)cc1)C(=O)NCC(=O)N[C@H](C(=O)O)C(C)C` (stereo partly drawn) (H-GVLK(X2)EYGV-OH), for which the Ratio in series [2] is 546 s⁻¹ M⁻¹.
The same measure, in the same setting: to `CC(C)C[C@H](NC(=O)[C@@H](NC(=O)CN)C(C)C)C(=O)N[C@@H](CCCCNC(=O)CC(C)(C)C(=O)O)C(=O)N[C@@H](CCC(=O)O)C(=O)N[C@@H](Cc1ccc(O)cc1)C(=O)NCC(=O)N[C@H](C(=O)O)C(C)C` (H-GVLK(X1)EYGV-OH) belongs 412 s⁻¹ M⁻¹.
For H-EIETDK(Ac)ATIG-OH, in series [1], the Ratio is 0.2 s⁻¹ M⁻¹.
Consider `CC(C)C[C@H](NC(=O)[C@@H](NC(=O)CN)C(C)C)C(=O)N[C@@H](CCCCNC(=O)CCCCC1CCSS1)C(=O)N[C@@H](CCC(=O)O)C(=O)N[C@@H](Cc1ccc(O)cc1)C(=O)NCC(=O)N[C@H](C(=O)O)C(C)C` (stereo partly drawn) (H-GVLK(Lipoyl(6ξ))EYGV-OH), for which the Ratio in series [2] is 170 s⁻¹ M⁻¹.
Take `CC[C@H](C)[C@H](NC(=O)[C@@H](NC(=O)[C@H](C)NC(=O)[C@H](CCCCNC(=O)CCCCC1CCSS1)NC(=O)[C@H](CC(=O)O)NC(=O)[C@@H](NC(=O)[C@H](CCC(=O)O)NC(=O)[C@@H](NC(=O)[C@@H](N)CCC(=O)O)[C@@H](C)CC)[C@@H](C)O)[C@@H](C)O)C(=O)NCC(=O)O` (stereo partly drawn) (H-EIETDK(Lipoyl(6ξ))ATIG-OH): the Ratio in series [1] was 7.65 s⁻¹ M⁻¹.
Turning to H-KQLATK(Ac)AARKS-OH, the Ratio in [3] was 3130 s⁻¹ M⁻¹.
In the case of `C[C@H](NC(=O)[C@@H](NC(=O)[C@H](CCC(N)=O)NC(=O)[C@@H](N)CCCCN)[C@@H](C)O)C(=O)N[C@@H](CCCNC(=N)N)C(=O)N[C@@H](CCCCNC(=O)CCCC[C@@H]1SC[C@@H]2NC(=O)N[C@@H]21)C(=O)N[C@@H](CO)C(=O)N[C@H](C(=O)NCC(=O)NCC(=O)O)[C@@H](C)O` (H-KQTARK(Biotin)STGG-OH), the Ratio in [1] stood at 0.74 s⁻¹ M⁻¹.

B1: NAD-dependent protein lipoamidase sirtuin-4, mitochondrial (Homo sapiens), Q9Y6E7 (protein)
chain: T1 sequence (whole entry)
In general, Km refers to the substrate concentration at which the rate is half of its maximum. For orientation: kcat means the maximal rate divided by the concentration of active sites. In the case of B1, the Km in series [4] is above 2500 µM; in series [5], 239 µM; in series [6], above 2500 µM; in series [7], above 2500 µM; in series [8], 814 µM; in series [9], 719 µM. For the same molecule, the Km worked out at 2340 µM in series [10], 17.7 µM in [11], 9.7 µM in series [12] and 10.1 µM in [13]. For the same molecule, the kcat in [5] came to 0.0018 s⁻¹; in series [8], 0.0019 s⁻¹; in series [9], 0.0005 s⁻¹; in series [10] it was 0.0087 s⁻¹; in [11], 0.0073 s⁻¹; in [12] it was 0.0053 s⁻¹. Moreover, the kcat in series [13] was found to be 0.0017 s⁻¹.
